B1: target 1 insC 3' of 19,insC 3' of 5 (mixed)
RNA 1: CACCCGUGCAAAAAUGCAGGGGUCUAAAACUGAGCGGAUAACCUCUCUAUGG
RNA 2: GGGAAUGGAUCCACAUCUACGAAUUCGUACCAUCAGAGAGGUUAUCCGCCUCACCGAGAUCGGAAGAGCACACGU
B2: target 1 A1U,C6U (mixed)
RNA 1: B1 RNA 1
RNA 2: GGGAAUGGAUCCACAUCUACGAAUUCGUACCAUAGAGAGGUUAUCUGCUCUCCGAGAUCGGAAGAGCACACGU
B3: target 1 insA 3' of 15,insC 3' of 12 (mixed)
RNA 1: B1 RNA 1
RNA 2: GGGAAUGGAUCCACAUCUACGAAUUCGUACCAUAGAGAAGGCUUAUCCGCUCACCGAGAUCGGAAGAGCACACGU
B4: target 1 insA 3' of 6 (mixed)
RNA 1: B1 RNA 1
RNA 2: GGGAAUGGAUCCACAUCUACGAAUUCGUACCAUAGAGAGGUUAUCCAGCUCACCGAGAUCGGAAGAGCACACGU
B5: target 1 insG 3' of 16,insG 3' of 16 (mixed)
RNA 1: B1 RNA 1
RNA 2: B3 RNA 2 with A38G, A39G, G40A, C42G
B6: target 1 G13U (mixed)
RNA 1: B1 RNA 1
RNA 2: B2 RNA 2 with G39U, U46C, U51A
B7: target 1 insU 3' of 20,insC 3' of 15 (mixed)
RNA 1: B1 RNA 1
RNA 2: B3 RNA 2 with A34U, G35A, A36G, G37A, A38G, A39C, G40A, C42G
B8: target 1 C7U,C21A (mixed)
RNA 1: B1 RNA 1
RNA 2: B2 RNA 2 with C31A, C45U, U46C, U51A
B9: target 1 insA 3' of 19,insU 3' of 6 (mixed)
RNA 1: B1 RNA 1
RNA 2: B1 RNA 2 with C34A, G48U, C49G
B10: target 1 insU 3' of 7,insA 3' of 7 (mixed)
RNA 1: B1 RNA 1
RNA 2: B3 RNA 2 with A39G, G41U, C42U, U43A, A45C, C47A
B11: target 1 insA 3' of 7,insU 3' of 1 (mixed)
RNA 1: B1 RNA 1
RNA 2: GGGAAUGGAUCCACAUCUACGAAUUCGUACCAUAGAGAGGUUAUCACGCUCAUCCGAGAUCGGAAGAGCACACGU
B12: target 1 insA 3' of 19,insU 3' of 13 (mixed)
RNA 1: B1 RNA 1
RNA 2: B3 RNA 2 with G35A, A36G, G37A, A38G, G41U, C42G
B13: target 1 G12C (mixed)
RNA 1: B1 RNA 1
RNA 2: B2 RNA 2 with G40C, U46C, U51A
B14: target 1 insC 3' of 17,insA 3' of 17 (mixed)
RNA 1: B1 RNA 1
RNA 2: B3 RNA 2 with A36C, G37A, A39G, G40A, C42G
B15: target 1 insG 3' of 16,insG 3' of 10 (mixed)
RNA 1: B1 RNA 1
RNA 2: B3 RNA 2 with A38G, C42U, U44G
B16: target 1 C6G,A9U (mixed)
RNA 1: B1 RNA 1
RNA 2: B2 RNA 2 with A43U, U46G, U51A
B17: target 1 insA 3' of 21,insA 3' of 12 (mixed)
RNA 1: B1 RNA 1
RNA 2: B3 RNA 2 with U33A, A34U, G35A, A36G, G37A, A38G, C42A
B18: target 1 insG 3' of 19,insC 3' of 9 (mixed)
RNA 1: B1 RNA 1
RNA 2: B1 RNA 2 with C34G, U45C, C46U, G48C, C49G
B19: target 1 insU 3' of 18,insG 3' of 9 (mixed)
RNA 1: B1 RNA 1
RNA 2: B1 RNA 2 with C34A, A35U, U45G, C46U, G48C, C49G
B20: target 1 A1U,A20C (mixed)
RNA 1: B1 RNA 1
RNA 2: B2 RNA 2 with A32C, U46C
B21: target 1 U8A,G13U (mixed)
RNA 1: B1 RNA 1
RNA 2: B2 RNA 2 with G39U, U44A, U46C, U51A
B22: target 1 insU 3' of 4,insC 3' of 3 (mixed)
RNA 1: B1 RNA 1
RNA 2: B11 RNA 2 with A46C, C47G, G48C, C49U, A52C, U53A
B23: target 1 A1G,G12C (mixed)
RNA 1: B1 RNA 1
RNA 2: B2 RNA 2 with G40C, U46C, U51G
B24: target 1 insU 3' of 14,insC 3' of 10 (mixed)
RNA 1: B1 RNA 1
RNA 2: B3 RNA 2 with A39U, C42U, U44C
B25: target 1 insA 3' of 8,insG 3' of 7 (mixed)
RNA 1: B1 RNA 1
RNA 2: B3 RNA 2 with A39G, G41U, C42U, U43A, U46C, C47G
B26: target 1 U11A,G12C (mixed)
RNA 1: B1 RNA 1
RNA 2: B2 RNA 2 with G40C, U41A, U46C, U51A
B27: target 1 insG 3' of 18,insC 3' of 1 (mixed)
RNA 1: B1 RNA 1
RNA 2: B1 RNA 2 with C34A, A35G, C50U, U51C, C52A, A53C
B28: target 1 insA 3' of 22,insG 3' of 22 (mixed)
RNA 1: B1 RNA 1
RNA 2: B3 RNA 2 with C31A, A32G, U33C, G35U, A39G, G40A, C42G
B29: target 1 A1G,G13U (mixed)
RNA 1: B1 RNA 1
RNA 2: B2 RNA 2 with G39U, U46C, U51G
B30: target 1 insU 3' of 20,insC 3' of 3 (mixed)
RNA 1: B1 RNA 1
RNA 2: B1 RNA 2 with C34U, C50U, U51C
B31: target 1 A1U,G12C (mixed)
RNA 1: B1 RNA 1
RNA 2: B2 RNA 2 with G40C, U46C
B32: target 1 A1C,G12C (mixed)
RNA 1: B1 RNA 1
RNA 2: B2 RNA 2 with G40C, U46C, U51C

Changes are numbered by the printed parent chain. Numbers in names are those of the source.

In this data set the target is T1, EsCas13d, nuclease-dead (Eubacterium siraeum, UniProt B0MS50, R295A;H300A;R849A;H854A).
T1 sequence: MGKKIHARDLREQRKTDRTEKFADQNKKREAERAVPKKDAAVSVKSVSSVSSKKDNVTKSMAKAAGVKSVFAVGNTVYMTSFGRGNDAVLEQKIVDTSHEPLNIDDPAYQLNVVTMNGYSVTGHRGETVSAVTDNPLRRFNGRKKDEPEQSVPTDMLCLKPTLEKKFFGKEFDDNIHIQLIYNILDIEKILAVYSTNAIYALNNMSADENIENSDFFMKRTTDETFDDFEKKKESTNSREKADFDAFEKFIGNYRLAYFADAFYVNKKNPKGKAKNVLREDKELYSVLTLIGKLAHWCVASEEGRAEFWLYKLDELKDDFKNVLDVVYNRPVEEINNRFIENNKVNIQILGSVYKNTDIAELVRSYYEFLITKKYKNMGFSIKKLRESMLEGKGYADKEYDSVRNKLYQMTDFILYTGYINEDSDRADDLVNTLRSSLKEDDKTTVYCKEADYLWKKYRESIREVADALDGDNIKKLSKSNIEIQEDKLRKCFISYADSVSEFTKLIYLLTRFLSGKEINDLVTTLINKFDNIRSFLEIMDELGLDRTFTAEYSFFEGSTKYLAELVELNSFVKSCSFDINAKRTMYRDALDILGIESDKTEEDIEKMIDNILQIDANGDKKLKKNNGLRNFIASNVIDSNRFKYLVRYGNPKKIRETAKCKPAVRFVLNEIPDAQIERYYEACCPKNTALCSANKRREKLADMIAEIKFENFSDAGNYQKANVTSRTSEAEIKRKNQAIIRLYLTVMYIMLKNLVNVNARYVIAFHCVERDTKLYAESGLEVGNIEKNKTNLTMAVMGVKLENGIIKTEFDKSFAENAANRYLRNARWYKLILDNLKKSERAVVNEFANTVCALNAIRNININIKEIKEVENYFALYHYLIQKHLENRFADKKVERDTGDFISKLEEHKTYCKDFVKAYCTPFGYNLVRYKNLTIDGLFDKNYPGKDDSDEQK
In words: crRNA (strand 1, pre-loaded); Mg2+; 40 mM Tris-HCl pH 7.5, 150 mM NaCl, 6 mM MgCl2, 1 mM DTT, 0.1% Tween-20, 0.2 mg/ml BSA; 25 C; 10 min per concentration, then washed. The settings on record: tags: His6-TwinStrep-SUMO cleaved; N-terminal SNAP kept (SNAP-Surface 488); label: 3' end held by stalled T7 RNA polymerase.
Usually Kd stands for a measure of binding affinity in units of concentration. A higher Kd goes with a looser complex. In turn, B1 gave a dissociation constant Kd of 75 ± 21 nM.
The same measure for B2: 11.4 ± 0.9 nM; for B3: 31 ± 6 nM.
The same measure for B4: 15 ± 1.3 nM.
As for B5, the Kd is 22.5 ± 1.4 nM.
As for B6, the figure is 34 ± 4 nM.
B7 yielded a dissociation constant Kd of 28 ± 2.2 nM.
As for B8, the figure is 24.7 ± 2.5 nM.
The same measure for B9: 22.9 ± 1.6 nM; for B10: 7.75 ± 0.3 nM.
As for B11, the figure is 7.7 ± 0.5 nM; as for B12, 35 ± 13 nM.
Take B13: the dissociation constant (Kd) came out at 8.3 ± 0.7 nM.
Consider B14, for which the dissociation constant Kd stood at 20.3 ± 1.5 nM.
In turn, B15 came in with a dissociation constant (Kd) of 31.2 ± 2.2 nM.
Molecule B16 yielded a dissociation constant (Kd) of 6.92 ± 0.27 nM.
The same measure for B17: 48 ± 5 nM; for B18: 78 ± 10 nM; for B19: 67 ± 10 nM.
The same measure for B20: 36 ± 8 nM; for B21: 53 ± 8 nM; for B22: 76 ± 22 nM.
For B23, the affinity, expressed as Kd, was 12.2 ± 0.9 nM.
The same measure for B24: 39 ± 10 nM; for B25: 13.3 ± 0.8 nM.
The same measure for B26: 7.59 ± 0.28 nM; for B27: 52 ± 4 nM; for B28: 15.2 ± 0.9 nM.
As for B29, the figure is 41 ± 7 nM; as for B30, 12.9 ± 1.3 nM; as for B31, 17.5 ± 1.7 nM.
B32: the Kd was 19 ± 2.1 nM.
